US20150232572A1 (UNIVERSIT DE LI GE, published 2015)

Key:
[1] = target: T1, recombinant MMP2 catalytic domain (UniProt P08253 110-452, limits assumed); test: Western blot
T1 construct: domain: catalytic domain

[2] = target: T2, recombinant MT1-MMP (MMP14) catalytic domain (UniProt P50281 112-284, limits assumed); test: ELISA
T2 construct: domain: catalytic domain

[3] = target: T3, recombinant MT3-MMP (MMP16) catalytic domain (UniProt P51512 120-292, limits assumed); test: ELISA
T3 construct: domain: catalytic domain
T3 sequence (P51512 120-292 limits assumed): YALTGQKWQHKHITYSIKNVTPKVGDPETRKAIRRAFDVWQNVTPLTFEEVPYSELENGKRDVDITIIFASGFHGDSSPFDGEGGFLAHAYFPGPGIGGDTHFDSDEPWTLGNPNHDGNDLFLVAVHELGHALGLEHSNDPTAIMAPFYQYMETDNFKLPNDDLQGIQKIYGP

T1 sequence (P08253 110-452 limits assumed): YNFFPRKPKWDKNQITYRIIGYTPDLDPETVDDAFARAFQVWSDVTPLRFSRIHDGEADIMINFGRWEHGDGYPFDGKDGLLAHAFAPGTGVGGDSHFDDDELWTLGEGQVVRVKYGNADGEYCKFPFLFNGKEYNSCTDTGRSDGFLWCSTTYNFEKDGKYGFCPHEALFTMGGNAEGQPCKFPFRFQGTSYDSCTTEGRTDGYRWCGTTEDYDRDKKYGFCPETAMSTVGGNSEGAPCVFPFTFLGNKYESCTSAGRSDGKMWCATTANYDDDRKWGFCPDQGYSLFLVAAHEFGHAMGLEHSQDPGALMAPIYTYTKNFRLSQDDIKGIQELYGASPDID

B1: K4H7 scFv antibody (scFv)
scFv: QVQLVQSGGGLVKPGRSLRLSCTASGFTFGDYAMSWFRQAPGKGLEWVGFIRSKAYGGTTEYAASVKGRFTISRDDSKSIAYLQMNSLKTEDTAVYYCTRGSSGWFLNWFDPWGQGTLVTVSSLEGGGGSGGGGSGGGGSELETTLTQSPATLSLSPGERATLSCRASQSISSSYLAWYQHKPGQAPRLLIYGASRRATGIPDRFSGSGSGTDFSLTISRLEPEDFAVYYCLHYGSSKWTFGQGTKVEIKR
notes: Human scFv from the VTT naive phage display libraries; Purified scFv clones contain a myc tag (produced as soluble scFv-myc-his fusions); also called K4H7 clone; scFV clone K4H7
binding result [1]: no binding (tested: scFv 1 µg/ml)
binding result [2]: no binding (tested: 3 µg of recombinant protein)
binding result [3]: no binding (tested: 3 µg of recombinant protein)
